Our source for the Human primary T Cell Binding (FOI) values is US20230295310A1.

This assay concerns the target human CD3 expressed on cells (human) (UniProt P07766). The assay is described as follows: flow cytometry, 25 nM.

Chain of human CD3 expressed on cells (human) (P07766 23-207, chain 1 of 3): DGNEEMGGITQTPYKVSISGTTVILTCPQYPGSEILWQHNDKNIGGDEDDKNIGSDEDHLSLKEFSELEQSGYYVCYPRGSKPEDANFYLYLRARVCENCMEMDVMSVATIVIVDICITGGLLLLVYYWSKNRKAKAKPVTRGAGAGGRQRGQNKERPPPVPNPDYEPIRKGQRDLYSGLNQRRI
Chain of human CD3 expressed on cells (human) (P04234 22-171, chain 2 of 3, further chain): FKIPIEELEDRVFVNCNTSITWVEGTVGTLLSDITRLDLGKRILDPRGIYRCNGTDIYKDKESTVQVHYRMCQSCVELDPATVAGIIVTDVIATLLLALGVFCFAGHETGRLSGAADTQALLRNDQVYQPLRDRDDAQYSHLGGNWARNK
Chain of human CD3 expressed on cells (human) (P09693 23-182, chain 3 of 3, further chain): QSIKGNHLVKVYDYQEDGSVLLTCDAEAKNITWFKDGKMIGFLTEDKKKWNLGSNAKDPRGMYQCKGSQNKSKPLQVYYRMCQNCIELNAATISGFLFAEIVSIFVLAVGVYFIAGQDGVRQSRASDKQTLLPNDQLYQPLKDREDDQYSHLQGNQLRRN

B1: mAb 109 (antibody, V domains shown)
VH: QVQLVESGGGVVQPGRSLRLSCVASGFPFRSYGMHWVRQAPGKGLEWVAFIWYDGSNKYYADSVRGRFTISRDNFKKMVYLQMNSLRAEDTAVYYCARDLAGIYAFDVWGQGTVVTVSS
VL: EIVMTQSPATLSVSPGERATLSCRASQSVSSNLAWYQQKPGQAPRLLIYGASTRATGIPARFSGSGSGTEFTLTVSSLQSEDFAIYYCQQYNNWRPLTFGGGTKVEIK
The molecule B1 showed a Human primary T Cell Binding (FOI) of 1.4 FOI.
